Measured values reported in the RNAGym collection of RNA variant scans (doi:10.7554/elife.80360).

B1: HDV Ribozyme (parent)
chain: GGCCGGCAUGGUCCCAGCCUCCUCGCUGGCGCCGGCUGGGCAACAUUCCGAGGGGACCGUCCCCUCGGUAAUGGCGAAUGGGACCCA

Variants of: B1
Experiment: self-cleavage, relative activity (ratio to wild type); higher = more cleavage; co-transcriptional

Variant | self-cleavage
GGCCGGCAUGGUCCCAACCUCCUCGCUGGCGCCGGCUGGGCAACAUUCCGAGCGGACCGUCCCCUCGGUAAUGGCGAAUGGGACCCA | 0.831
GGCCGGCAUGGUCCCAACCUCCUCGCUGGCGCCGGCUGGGCAACAUUCCGAGAGGACCGUCCCCUCGGUAAUGGCGAAUGGGACCCA | 1.02
GGCCGGCAUGGUCCCAACCUCCUCGCUGGCGCGGGCUGGGCAACAUUCCGAGGGGACCGUCCCCUCGGUAAUGGCGAAUGGGACCCA | 0.0369
GGCCGGCAUGGUCCCAACCUCCUCGCUGGCGCAGGCUGGGCAACAUUCCGAGGGGACCGUCCCCUCGGUAAUGGCGAAUGGGACCCA | 0.0875
GGCCGGCAUGGUCCCAACCUCCUCGAUGGCGCCGGCUGGGCAACAUUCCGAGGGGACCGUCCCCUCGGUAAUGGCGAAUGGGACCCA | 0.798
GGCCGGCAUGGUCCCAACCUCCUCGGUGGCGCCGGCUGGGCAACAUUCCGAGGGGACCGUCCCCUCGGUAAUGGCGAAUGGGACCCA | 0.793
GGCCGGCAUGGUCCCAACCUCCUCGCUGGCGCCGGUUGGGCAACAUUCCGAGGGGACCGUCCCCUCGGUAAUGGCGAAUGGGACCCA | 0.272
GGCCGGCAUGGUCCCAACCUCCUCGCUGGCGCCAGCUGGGCAACAUUCCGAGGGGACCGUCCCCUCGGUAAUGGCGAAUGGGACCCA | 0.117
GGCCGGCAUGGUCCCAACCUCCUCGCUGGCGCCCGCUGGGCAACAUUCCGAGGGGACCGUCCCCUCGGUAAUGGCGAAUGGGACCCA | 0.0594
GGCCGGCAUGGUCCCAACCUCCUCGCUGGCGCCGACUGGGCAACAUUCCGAGGGGACCGUCCCCUCGGUAAUGGCGAAUGGGACCCA | 0.205
GGCCGGCAUGGUCCCAACCUCCUCGCUGACGCCGGCUGGGCAACAUUCCGAGGGGACCGUCCCCUCGGUAAUGGCGAAUGGGACCCA | 0.128
GGCCGGCAUGGUCCCAACCUCCUCGCUGGCGCCGGCUGGGCUACAUUCCGAGGGGACCGUCCCCUCGGUAAUGGCGAAUGGGACCCA | 0.119
GGCCGGCAUGGUCCCAACCUCCUCGCUGGCGCCGGCUGGGCCACAUUCCGAGGGGACCGUCCCCUCGGUAAUGGCGAAUGGGACCCA | 0.229
GGCCGGCAUGGUCCCAACCUCCUCGCUGGCGCCGGCUGGGCAACAUUCCGAGGGGCCCGUCCCCUCGGUAAUGGCGAAUGGGACCCA | 0.847
GGCCGGCAUGGUCCCAACCUCCUCGCUGGCGCCGGCUGGGCAACAUUCCGAGGGGGCCGUCCCCUCGGUAAUGGCGAAUGGGACCCA | 0.59
GGCCGGCAUGGUCCCAACCUCCUCGCUGGCGCCGGCUGGACAACAUUCCGAGGGGACCGUCCCCUCGGUAAUGGCGAAUGGGACCCA | 0.655
GGCCGGCAUGGUCCCAACCUCCUCGCUGGCGCCGGCUGGGCAACAUUCCGAGGGGACCGUCCCCUCGGUAAUGGCGAAUGGGACGCA | 0.814
GGCCGGCAUGGUCCCAACCUCCUCGCUGGCGCCGGCUGGGCAACAUUCCGAGGGGACCGUCCCCUCGGUAAUGGCGAAUGGGACUCA | 0.641
GGCCGGCAUGGUCCCAACCUCCUCGCUAGCGCCGGCUGGGCAACAUUCCGAGGGGACCGUCCCCUCGGUAAUGGCGAAUGGGACCCA | 0
GGCCGGCAUGGUCCCAACUUCCUCGCUGGCGCCGGCUGGGCAACAUUCCGAGGGGACCGUCCCCUCGGUAAUGGCGAAUGGGACCCA | 0.119
GGCCGGCAUGGUCCCAACCUCCUCGCUGGCGCCGGCUGGGCAACAUUCCGAGGGGACCGUCGCCUCGGUAAUGGCGAAUGGGACCCA | 0.633
GGCCGGCAUGGUCCCAACCUCCUCGCUGGCGCCGGCUGGGCAACAUUCCGAGGGGACCGUCACCUCGGUAAUGGCGAAUGGGACCCA | 0.886

Variant | self-cleavage
GGCCGGCAUGGUCCCAACCUCCUCGCUGGCGCCGGCUGGGCAACAUUCCGAGGGGACCGUCCCCUCGGUAAUGGCGAAUGGGUCCCA | 0.565
GGCCGGCAUGGUCCCAACCUCCUCGCUGGCGCCGGCUGGGCAACAUUCCGAGGGGACCGUCCCCUCGGUAAUGGCGAAUGGGGCCCA | 0.7
GGCCGGCAUGGUCCCAACCUCCUCGCUGGCGCCGGCUGGGCAACAUUCCUAGGGGACCGUCCCCUCGGUAAUGGCGAAUGGGACCCA | 0.815
GGCCGGCAUGGUCCCAACCUCCUCGCUGGCGCCGGCUGGGCAACAUUCCCAGGGGACCGUCCCCUCGGUAAUGGCGAAUGGGACCCA | 0.502
GGCCGGCAUGGUCCCAACCUCCUCGCUGGCGCCGGCUGGGCAACAUUCCGAGGGGACCGUCCCCUGGGUAAUGGCGAAUGGGACCCA | 0.652
GGCCGGCAUGGUCCCAACCUCGUCGCUGGCGCCGGCUGGGCAACAUUCCGAGGGGACCGUCCCCUCGGUAAUGGCGAAUGGGACCCA | 0.0573
GGCCGGCAUGGUCCCAACCUCCUCGCUGGCGCCGGCUGGGCAACAUUCCGAGGGGACCGUGCCCUCGGUAAUGGCGAAUGGGACCCA | 0.406
GGCCGGCAUGGUCCCAACCUCCUCGCUGGCGCCGGCUGGGCAACAUUCCGAGGGGACCGUUCCCUCGGUAAUGGCGAAUGGGACCCA | 0.904
GGCCGGCAUGGUCCCAACCUCCUCGCUGGCGCCGGCUGGGCAACAUUCCGAGGGCACCGUCCCCUCGGUAAUGGCGAAUGGGACCCA | 0.742
GGCCGGCAUGGUCCCAACCUCCUCGCUGGCGCCGGCUGUGCAACAUUCCGAGGGGACCGUCCCCUCGGUAAUGGCGAAUGGGACCCA | 0.197
GGCCGGCAUGGUCCCAACCUCCUCGCUGGCGCCGGCUGAGCAACAUUCCGAGGGGACCGUCCCCUCGGUAAUGGCGAAUGGGACCCA | 0.095
GGCCGGCAUGGUCCCAACCUCCUCGCUGGCGCCGGCUGGGCAACAUUCCGAAGGGACCGUCCCCUCGGUAAUGGCGAAUGGGACCCA | 0.831
GGCCGGCAUGGUCCCAACCUCCUCGCUGGCGCCGGCUGGGCAACAUUCCGAGGGGACCGUCCCCUCGGUAAUGGCGACUGGGACCCA | 0.268
GGCCGGCAUGGUCCCAACCUCCUCGCUGGCGCCGGCUGGGCAACAUUCCGAGGGGACCGUCCCCUCGGUAAUGGCGAAUGGGAUCCA | 0.598
GGCCGGCAUGGUCCCAACCUCCUCGCUGGCGCCGGCUGGGCAACAUUCCGAGGGGACCGUCCCCUCGGUAAUGGCGAAUGGGAGCCA | 0.623
GGCCGGCAUGGUCCCAACCUCCUCGCUGGCGCCGGCUGGGCAACAUUCCGAGGGGACCGUCCCCUCGGUAAUGGCGAAUGGGAACCA | 0.807
GGCCGGCAUGGUCCCAACCUCCUCGCUGGCCCCGGCUGGGCAACAUUCCGAGGGGACCGUCCCCUCGGUAAUGGCGAAUGGGACCCA | 0.188
GGCCGGCAUGGUCCCAACCUCCUCGCUGGCUCCGGCUGGGCAACAUUCCGAGGGGACCGUCCCCUCGGUAAUGGCGAAUGGGACCCA | 0.102
GGCCGGCAUGGUCCCAACCUCCUCGCUGGCGCCGGCUGGGCAACAUUCCGAGGGGACCGUCCCCUCGGUACUGGCGAAUGGGACCCA | 0.151
GGCCGGCAUGGUCCCAACCUCCUCGCUGGCGACGGCUGGGCAACAUUCCGAGGGGACCGUCCCCUCGGUAAUGGCGAAUGGGACCCA | 0.0852
GGCCGGCAUGGUCCCAACCUCCUCGCUGGCGCCGGCUGGGCAACAUUCCGAGGGGACCGUCCCCUCGGUUAUGGCGAAUGGGACCCA | 0.616
GGCCGGCAUGGUCCCAACCUCCUCGCUGGCGCCGGCUGGGCAACAUUCCGAGGGGAACGUCCCCUCGGUAAUGGCGAAUGGGACCCA | 0.965

Variant | self-cleavage
GGCCGGCAUGGUCCCAACCUCCUCGCUGGCGCCGGCUGGGCAACAUUCCGAGGGGAUCGUCCCCUCGGUAAUGGCGAAUGGGACCCA | 0.727
GGCCGGCAUGGUCCCAACCUCCUCGCUGGCGCCGGCUGGGCAACUUUCCGAGGGGACCGUCCCCUCGGUAAUGGCGAAUGGGACCCA | 0.696
GGCCGGCAUGGUCCCAACCUCCUCGCUGGCGCCGGCUGGGCAACGUUCCGAGGGGACCGUCCCCUCGGUAAUGGCGAAUGGGACCCA | 0.755
GGCCGGCAUGGUCCCAACCUCCUCGCUGGCGCCGGCUGGGCAACAUUCCGAGGGGACCGUCCCCUCGGUAAUGGCGUAUGGGACCCA | 0.138
GGCCGGCAUGGUCCCAACCUCCUCGCUGGCGCCGGCUGGGCAACAUUCCGAGGGGACCGUCCCCUCGGUAAUGGCGAAUGGGACCGA | 0.591
GGCCGGCAUGGUCCCAACCUCCUCGCUGGCGCCGGCUGGGCAACAUUCCGAGGUGACCGUCCCCUCGGUAAUGGCGAAUGGGACCCA | 0.554
GGCCGGCAUGGUCCCAACCUCCUCGCUGGCGCCGGCUGGGCAACAUUCCGAGGGGACCGUCCCCUCGGUAAUGGCGAAUGGGACCCC | 0.716
GGCCGGCAUGGUCCCAACCUCCUCGCUGGCGCCGGCUGGGCAACAUUCCGAGGGGACCGUCCCCUCGGUAAUGGCGAAUGGGACCCG | 0.745
GGCCGGCAUGGUCCCAACCUCCUAGCUGGCGCCGGCUGGGCAACAUUCCGAGGGGACCGUCCCCUCGGUAAUGGCGAAUGGGACCCA | 0.089
GGCCGGCAUGGUCCCAACCUCCUUGCUGGCGCCGGCUGGGCAACAUUCCGAGGGGACCGUCCCCUCGGUAAUGGCGAAUGGGACCCA | 0.26
GGCCGGCAUGGUCCCAACCUCCUCGCUGGCGCCGGCUGGGCAACAUUCCGAGGGGACCGUCCCCUCGGUAAUGGCGAAUGGGACCCA | 0.718
GGCCGGCAUGGUCCCAAGCUCCUCGCUGGCGCCGGCUGGGCAACAUUCCGAGGGGACCGUCCCCUCGGUAAUGGCGAAUGGGACCCA | 0.095
GGCCGGCAUGGUCCCAACCUCCUCGCUGGGGCCGGCUGGGCAACAUUCCGAGGGGACCGUCCCCUCGGUAAUGGCGAAUGGGACCCA | 0.631
GGCCGGCAUGGUCCCAACCUCCUCGCUGGCGCCGGCUGGGCAACAUUCCGUGGGGACCGUCCCCUCGGUAAUGGCGAAUGGGACCCA | 0.884
GGCCGGCAUGGUCCCAACCUACUCGCUGGCGCCGGCUGGGCAACAUUCCGAGGGGACCGUCCCCUCGGUAAUGGCGAAUGGGACCCA | 0.0297
GGCCGGCAUGGUCCCAACCUCCUCGCUGGCGCCGGCUGGGCAACAUUCCGAGGGGACUGUCCCCUCGGUAAUGGCGAAUGGGACCCA | 0.588
GGCCGGCAUGGUCCCAACCUCCUCGCUGGCGCCGGCUGGGGAACAUUCCGAGGGGACCGUCCCCUCGGUAAUGGCGAAUGGGACCCA | 0.0997
GGCCGGCAUGGUCCCAACCUCCUCGCUGGCGCCGGCUCGGCAACAUUCCGAGGGGACCGUCCCCUCGGUAAUGGCGAAUGGGACCCA | 0.0791
GGCCGGCAUGGUCCCAACCUCCUCCCUGGCGCCGGCUGGGCAACAUUCCGAGGGGACCGUCCCCUCGGUAAUGGCGAAUGGGACCCA | 0.158
GGCCGGCAUGGUCCCAACCUCCUCGCUGGCGCCGGCUGGGCACCAUUCCGAGGGGACCGUCCCCUCGGUAAUGGCGAAUGGGACCCA | 0.0369
